The nature of data set [1]: folding stability dG unfold from trypsin proteolysis; higher = more stable. Put shortly: (§1)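 Unfolding free energy was derived, per protease or combined, against a sequence-predicted unfolded-state K50 and a shared folded-state K50, starting from K50 inferred by Bayesian fitting of sequencing counts. Digestion with trypsin and chymotrypsin was carried out on designed mini-proteins under 80 residues without cysteine in a PA-tagged cDNA display construct. Only designs with AlphaFold2 dimer inter-PAE above 15 were kept.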

The nature of data set [2]: folding stability dG unfold from chymotrypsin proteolysis; higher = more stable. In short, it runs like this:
as §1

Data set [3] in a line: folding stability dG unfold (combined trypsin and chymotrypsin); higher = more stable. Put shortly: as §1

± gives the half width of the 95% confidence interval.

For the sequence “SAGGSAGGSAGWRAKVYPPGNGEPIGTIEIPKDWTPSQIKEIADDLQKKFPPGWRVEIEDSAGGSAGGSAGG [r11_1081_TrROS]”, the “folding stability dG unfold” value turned out to be 1.72 ± 0.051 kcal/mol in data set [1], 0.904 ± 0.093 kcal/mol in data set [2] and 1.38 ± 0.12 kcal/mol in data set [3].
In the case of “SAGGSAGGSAGYIWIPAKDFAKYIAEEHEEKGYQINIPVEVRPDNWVWIDIEIQPLKPGQSAGGSAGGSAGG [r11_214_TrROS]”, the “folding stability dG unfold” value was found to be 0.644 ± 0.048 kcal/mol in data set [1], 1.3 ± 0.096 kcal/mol in data set [2] and 1.04 ± 0.086 kcal/mol in data set [3].
Turning to “SAGGSAGGSAGYLYFISIEFNLQWNGDGNLQLQPKIEIQRIEIPPPPPKWKYDGNKPKYDSAGGSAGGSAGG [r17_418_TrROS]”, the “folding stability dG unfold” value in data set [1] stood at 2.44 ± 0.12 kcal/mol; in data set [2], 3.44 ± 0.048 kcal/mol; in data set [3] it was 3.04 ± 0.17 kcal/mol.
“SAGGSAGGSAIKAPPNSKIIKIEVKPLPNGDLLVEITIIDVPPDDSIGSGKYKILIKLEKGGSAGGSAGGSA [r18_273_TrMRF]”: the “folding stability dG unfold” value in data set [1] was 2.81 ± 0.3 kcal/mol; in data set [2], 3.1 ± 0.16 kcal/mol; in data set [3], 3.02 ± 0.26 kcal/mol.
In the case of “SAGGSAGGSAIKEIVKRIEKLFGVDVEPEQEEREVNGGRYPTLPVTVKVPPNANSPALKEASAGGSAGGSAG [r3_427_TrROS]”, the results for the “folding stability dG unfold” value in data set [1], in data set [2] and in data set [3] were -0.555 ± 0.4 kcal/mol, 0.636 ± 0.093 kcal/mol and 0.021 ± 0.24 kcal/mol, respectively.
Turning to “SAGGSAGGSAIKPGEKIKILVLVKDENGKEYLVKMEIEKLPDGKIKIKKVEIMSLEELKKLSAGGSAGGSAG [r3_212_TrROS_Hall]”, the figures for the “folding stability dG unfold” value in data set [1], in data set [2] and in data set [3] were 1.84 ± 0.043 kcal/mol, 2.38 ± 0.029 kcal/mol and 2.2 ± 0.13 kcal/mol, respectively.
Taken in the same sequence, the figures for “SAGGSAGGSAIPKAPVTVTVTTADGRPALATVEYYPDGVLVTVHYGDKTVTAWVAPADISASAGGSAGGSAG [r3_373_TrMRF]” were 0.864 ± 0.053 kcal/mol, 2.19 ± 0.11 kcal/mol and 1.54 ± 0.17 kcal/mol.
On to “SAGGSAGGSAISIMIDDPDDLELAEEIANNIRDHFPDFPIKVEVERMPGNPDYYMIRVEWESAGGSAGGSAG [r3_131_TrROS]”, for which the “folding stability dG unfold” value in data set [1] turned out to be 1.79 ± 0.073 kcal/mol; in data set [2], 1.52 ± 0.042 kcal/mol; in data set [3], 1.66 ± 0.096 kcal/mol.
In the case of “SAGGSAGGSAKAVEFYFPAEEYTVEEIIDRLVKELGVPKENIKLAKVEPLENGELKVIVEIPSAGGSAGGSA [r18_118_TrMRF]”, the “folding stability dG unfold” value came to 2.82 ± 0.11 kcal/mol in data set [1], 3.21 ± 0.12 kcal/mol in data set [2] and 3.1 ± 0.092 kcal/mol in data set [3].
Taken in the same sequence, the figures for “SAGGSAGGSAKEIDFKFRSPGNGEEFPFRVEIDEFDPDDGPLLIKVEMPNGKPHTFPADDILSAGGSAGGSA [r18_334_TrROS]” were 0.101 ± 0.086 kcal/mol, 0.76 ± 0.15 kcal/mol and 0.503 ± 0.11 kcal/mol.
On the same counts, the results for “SAGGSAGGSAKEILIVMTPEEAEELKKELLEKLKELAKKLKIKEIKIKVYLVKYDKNGKKVSAGGSAGGSAG [r3_89_TrROS_Hall]” are 1.9 ± 0.12 kcal/mol, 2.66 ± 0.091 kcal/mol and 2.26 ± 0.28 kcal/mol.
For the sequence “SAGGSAGGSAKELLKNIEKVEIIKNKKTNKYTIRIKNKNGKVYEFEFKSLEEALKKAGIKPSAGGSAGGSAG [r3_36_TrROS_Hall]”, the results for the “folding stability dG unfold” value in data set [1], in data set [2] and in data set [3] were 2.24 ± 0.041 kcal/mol, 3.19 ± 0.038 kcal/mol and 2.93 ± 0.073 kcal/mol, respectively.
In the case of “SAGGSAGGSAKETLRMELELEIDGVVVRVEAEVELDPETNELHIRVKVEVEPLPPPLPPGLESAGGSAGGSA [r18_16_TrROS_Hall]”, the “folding stability dG unfold” value was 1.2 ± 0.2 kcal/mol in data set [1], 2.53 ± 0.34 kcal/mol in data set [2] and 2.32 ± 0.33 kcal/mol in data set [3].
As to “SAGGSAGGSAKIKIKVKPGEKVRIYNKKTKKEIAEVEVVEVKEGKIVVKLKNGKLYEIEIEPSAGGSAGGSA [r18_363_TrROS_Hall]”, the “folding stability dG unfold” value is 1.67 ± 0.033 kcal/mol in data set [1], 2.36 ± 0.06 kcal/mol in data set [2] and 2.18 ± 0.052 kcal/mol in data set [3].
With “SAGGSAGGSAKIKPGEKVEITLKDGSKVIIEKKEDGKYLARIIDKKTNEVKTVPLDKIKLVSAGGSAGGSAG [r3_213_TrROS_Hall]”, the “folding stability dG unfold” value worked out at 0.99 ± 0.057 kcal/mol in data set [1], 1.08 ± 0.046 kcal/mol in data set [2] and 1.13 ± 0.14 kcal/mol in data set [3].
Taken in the same sequence, the figures for “SAGGSAGGSAKIKVLIKITNKDGKKKEILLEAETEEEALEAAKKLAEKEINGKKYKIEIKPLSAGGSAGGSA [r18_457_TrROS_Hall]” were 1.83 ± 0.074 kcal/mol, 2.08 ± 0.044 kcal/mol and 1.96 ± 0.11 kcal/mol.
Turning to “SAGGSAGGSAKIRVGGEEIELPPGKPVMFRFPENGYMIKITIKPDPKENKWKIDELKVYPMDSAGGSAGGSA [r18_222_TrROS]”, the “folding stability dG unfold” value in data set [1] was 1.13 ± 0.089 kcal/mol; in data set [2], 1.83 ± 0.16 kcal/mol; in data set [3], 1.46 ± 0.19 kcal/mol.
As for “SAGGSAGGSAKKITIYLPNAEVVEVEYDEETDVITIRVKNEDGSEYEFRFYPDGSVEIRPVSAGGSAGGSAG [r3_348_TrROS_Hall]”, the “folding stability dG unfold” value in data set [1] amounted to 2.95 ± 0.16 kcal/mol; in data set [2], 3.65 ± 0.15 kcal/mol; in data set [3], 3.4 ± 0.14 kcal/mol.
As for “SAGGSAGGSAKKKVIVIELPEDMTLEEALALAKALAPPGAEIVIRRDGKLYVIKIEDPEKLSAGGSAGGSAG [r3_50_TrROS_Hall]”, the “folding stability dG unfold” value in data set [1] stood at 2.24 ± 0.11 kcal/mol; in data set [2], 2.82 ± 0.084 kcal/mol; in data set [3] it was 2.55 ± 0.17 kcal/mol.
On to “SAGGSAGGSAKKKVKIKLEFDKETNTLRIEVEDEDTGEKTEIEITIKLEPPPPPPLPEELKKSAGGSAGGSA [r18_361_TrROS_Hall]”, for which the entries for the “folding stability dG unfold” value in data set [1], in data set [2] and in data set [3] were 1.72 ± 0.18 kcal/mol, 1.42 ± 0.22 kcal/mol and 1.73 ± 0.61 kcal/mol, respectively.
On the same counts, the results for “SAGGSAGGSAKKKVKVVEIKITYDKEKNEYYIEAKVYNENTGETKTVRIKVKLKPGQKLKFSAGGSAGGSAG [r3_1_TrROS_Hall]” are 1.65 ± 0.041 kcal/mol, 1.71 ± 0.066 kcal/mol and 1.72 ± 0.087 kcal/mol.
Take “SAGGSAGGSAKKTLTVTVKAEPSEGAPAIAKEVAEKLGLPDAKVLSISYDPETGELTITFEYSAGGSAGGSA [r18_481_TrMRF]”: the “folding stability dG unfold” value in data set [1] came to 4.21 ± 0.2 kcal/mol; in data set [2], 4.56 ± 0.097 kcal/mol; in data set [3], 4.61 ± 0.14 kcal/mol.
Turning to “SAGGSAGGSAKPDKPIKVKVTLYNPATGEKTVVEVEVPPHVKPEEVAEALRKEFGAARVEVESAGGSAGGSA [r18_58_TrMRF]”, the “folding stability dG unfold” value in data set [1] was found to be 3.05 ± 0.086 kcal/mol; in data set [2], 3.112 ± 0.03 kcal/mol; in data set [3] it was 3.08 ± 0.057 kcal/mol.
In the case of “SAGGSAGGSAKPEAVAPAVFTLDGVPYLVPVRVLEAGLSPDQKLLVLGTLPNGEPFLAVFDASAGGSAGGSA [r18_54_TrMRF]”, the “folding stability dG unfold” value in data set [1] is 0.744 ± 0.058 kcal/mol; in data set [2] it was 1.57 ± 0.082 kcal/mol; in data set [3], 1.27 ± 0.12 kcal/mol.
In the case of “SAGGSAGGSAKPEKPEKVELKPKVKFVKVKVRLRFSFTLENGEKVEVELEATFLFVDGKLVSAGGSAGGSAG [r3_380_TrROS_Hall]”, the “folding stability dG unfold” value in data set [1] stood at 3.97 ± 0.22 kcal/mol; in data set [2], 5.31 ± 0.13 kcal/mol; in data set [3] it was 5.11 ± 0.2 kcal/mol.
As to “SAGGSAGGSAKPKVKIKIEVTVNEDGTVTVRAEIEVNGKKYTIEVKIKIKAPKPEKVKLFKKSAGGSAGGSA [r18_507_TrROS_Hall]”, the entries for the “folding stability dG unfold” value in data set [1], in data set [2] and in data set [3] were 0.919 ± 0.066 kcal/mol, -0.2 ± 0.84 kcal/mol and 0.497 ± 0.48 kcal/mol, respectively.
For “SAGGSAGGSAKSFWIDSPEQAEELADELQQKGPNVEPTVERDDNNGWYQLEIPNGKDIVIWGSAGGSAGGSA [r18_154_TrROS]”, the “folding stability dG unfold” value was -0.417 ± 0.2 kcal/mol in data set [1], 0.73 ± 0.19 kcal/mol in data set [2] and 0.272 ± 0.24 kcal/mol in data set [3].
Taken in the same sequence, the figures for “SAGGSAGGSAKTIKVLVRDKETGEVFEVEAEIVEFDEETGELLIKVRLPNGKTLTLSAEELLSAGGSAGGSA [r18_334_TrROS_Hall]” were 2.54 ± 0.098 kcal/mol, 4.12 ± 0.1 kcal/mol and 3.71 ± 0.21 kcal/mol.
Regarding “SAGGSAGGSAKTLTLTTPNGDKVEVKLYELPDDFVLAEIKVLATGEKFYALLTKDGTVYLASAGGSAGGSAG [r3_15_TrMRF]”, the “folding stability dG unfold” value in data set [1] amounted to 2.47 ± 0.084 kcal/mol; in data set [2] it was 3.49 ± 0.15 kcal/mol; in data set [3] it was 3.06 ± 0.13 kcal/mol.
On the same counts, the results for “SAGGSAGGSAKTVTLTIEITNEDGKKFTAKIEVTYDEETGEFTVRIEIFDKNGKLIAEFPLSAGGSAGGSAG [r3_154_TrROS_Hall]” are 3.72 ± 0.17 kcal/mol, 5.1 ± 0.1 kcal/mol and 4.98 ± 0.2 kcal/mol.
Consider “SAGGSAGGSAKVEPVGVDPKNLVVVYRFENFTVAVTYDPESGKVTVRITDPDGNVLEFELSSAGGSAGGSAG [r3_25_TrMRF]”, for which the “folding stability dG unfold” value was 2.24 ± 0.077 kcal/mol in data set [1], 4.112 ± 0.041 kcal/mol in data set [2] and 3.71 ± 0.086 kcal/mol in data set [3].
Take “SAGGSAGGSAKVILLPSPDDSVVLITVHPDDTVEVTVLRLNPEDPTYEPVTVTVPLSYPELFSAGGSAGGSA [r18_503_TrMRF]”: the “folding stability dG unfold” value was 0.903 ± 0.044 kcal/mol in data set [1], 0.791 ± 0.19 kcal/mol in data set [2] and 0.843 ± 0.18 kcal/mol in data set [3].
For “SAGGSAGGSAKYKPIGELEFEFENGIRLRVTFYEGEGEKIAIVEIEIPEPSLEEAIKILESSAGGSAGGSAG [r3_158_TrMRF]”, the “folding stability dG unfold” value is 2.14 ± 0.095 kcal/mol in data set [1], 2.79 ± 0.037 kcal/mol in data set [2] and 2.56 ± 0.09 kcal/mol in data set [3].
Taken in the same sequence, the figures for “SAGGSAGGSALDPSAPYVVLIDIDIEPEKAEVEKIPGIPKYIVKKIDLKITIKIEIVSAKDASAGGSAGGSA [r18_137_TrMRF]” were 2.28 ± 0.17 kcal/mol, 3.14 ± 0.087 kcal/mol and 2.84 ± 0.08 kcal/mol.
Taken in the same sequence, the figures for “SAGGSAGGSALELIKEIAEEHNIPVDIEPTGNKIRVEIEMPNPDGQPVKHTIEIPIPPDENQSAGGSAGGSA [r18_27_TrROS]” were 0.389 ± 0.11 kcal/mol, 1.08 ± 0.078 kcal/mol and 0.975 ± 0.2 kcal/mol.

(Values after the supplement of paper PMC12764529.)
